Results reported in PMC5453625.
pKd: −log10 of the molar value.

Tests used:
[1] = molecular target: human nectin-1 ectodomain (amino acids 30-335) (human) (UniProt Q15223); experiment: SPR; BIAcore 3000, CM5 chip; […]) immobilised; […]; 25 C; HBS-EP (10 mM HEPES pH 7.4, 150 mM NaCl, 3 mM EDTA, 0.005% Tween 20); […]
[2] = molecular target: swine nectin-1 ectodomain (amino acids 30-335) (swine) (UniProt Q9GL76); experiment: as above
Sequence of UniProt Q9GL76 (Q9GL76 30-335): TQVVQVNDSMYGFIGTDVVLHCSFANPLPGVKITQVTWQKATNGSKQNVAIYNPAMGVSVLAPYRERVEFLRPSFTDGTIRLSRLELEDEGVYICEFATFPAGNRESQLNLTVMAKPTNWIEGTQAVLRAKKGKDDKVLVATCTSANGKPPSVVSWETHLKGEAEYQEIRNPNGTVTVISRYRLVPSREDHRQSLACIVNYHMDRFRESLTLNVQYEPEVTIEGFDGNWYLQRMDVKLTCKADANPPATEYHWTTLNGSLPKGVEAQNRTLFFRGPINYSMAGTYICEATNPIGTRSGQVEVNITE

Sequence of UniProt Q15223 (Q15223 30-335): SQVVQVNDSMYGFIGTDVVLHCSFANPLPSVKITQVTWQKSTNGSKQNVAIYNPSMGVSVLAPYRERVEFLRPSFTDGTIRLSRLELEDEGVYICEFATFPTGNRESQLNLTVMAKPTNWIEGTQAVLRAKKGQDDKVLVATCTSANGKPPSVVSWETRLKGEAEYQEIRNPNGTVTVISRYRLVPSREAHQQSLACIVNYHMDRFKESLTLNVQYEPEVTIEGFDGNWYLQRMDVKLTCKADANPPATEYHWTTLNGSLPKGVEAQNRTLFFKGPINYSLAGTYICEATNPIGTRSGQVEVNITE

Substance: PRV gD284 (pseudorabies virus glycoprotein D, residues 1-284, lacking the membrane-proximal loop) (domain or fragment)
- pKd [1]: 7.79
- koff [1]: 0.0117 s⁻¹
- kon [1]: 725000 M⁻¹ s⁻¹
- pKd [2]: 7.74
- koff [2]: 0.0211 s⁻¹
- kon [2]: 1.15e+06 M⁻¹ s⁻¹
